How the values were obtained:
[1] = tested on: T1, GST fusion protein carrying the SP3 motif of NFAT
T1 sequence: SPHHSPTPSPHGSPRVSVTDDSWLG

[2] = tested on: T2, GST fusion protein carrying the SP2 motif of NFAT
T2 sequence: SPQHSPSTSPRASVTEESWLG

[3] = molecular target: T3, GST fusion protein containing the NFAT2 phosphorylation site S151 flanked with 9-11 amino acids (UniProt O95644)
T3 sequence: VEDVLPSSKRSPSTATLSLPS

[4] = molecular target: T4, GST fusion protein containing the NFAT2 phosphorylation site S161 flanked with 9-11 amino acids (UniProt O95644)
T4 sequence: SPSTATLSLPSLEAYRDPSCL

[5] = molecular target: T5, GST fusion protein containing the N-terminal regulatory domain (amino acids 1-319) of NFAT2 (UniProt O95644)
T5 sequence: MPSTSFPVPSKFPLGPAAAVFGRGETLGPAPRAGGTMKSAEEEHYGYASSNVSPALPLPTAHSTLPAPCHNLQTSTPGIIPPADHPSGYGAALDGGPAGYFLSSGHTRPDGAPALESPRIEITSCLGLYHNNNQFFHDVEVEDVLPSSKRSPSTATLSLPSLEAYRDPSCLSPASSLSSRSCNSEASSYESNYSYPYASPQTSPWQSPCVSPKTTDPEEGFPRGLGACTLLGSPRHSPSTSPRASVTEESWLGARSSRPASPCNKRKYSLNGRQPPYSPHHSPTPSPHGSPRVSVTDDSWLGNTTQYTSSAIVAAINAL

[6] = molecular target: T6, GST fusion protein containing the NFAT2 phosphorylation site S324 flanked with 9-11 amino acids (UniProt O95644)
T6 sequence: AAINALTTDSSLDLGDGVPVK

**Q.** How did the “in vitro kinase assay” value [1] turn out when IKKε purified from 293T cells was run?
**A.** IKKε efficiently phosphorylated the SP3 motif

**Q.** And the “in vitro kinase assay” value [2]?
**A.** weakly the SP2 site

**Q.** And the “in vitro kinase assay” value [3]?
**A.** peptides containing three serines, except the peptides containing S^117, were phosphorylated by IKKε in vitro

**Q.** What about the “in vitro kinase assay” value [4] of the same substance?
**A.** peptides containing three serines, except the peptides containing S^117, were phosphorylated by IKKε in vitro

**Q.** And the “in vitro kinase assay” value [5]?
**A.** purified IKKε was sufficient to phosphorylate the N-terminal regulatory domain (amino acids 1-319) of NFAT2 by an in vitro kinase assay

**Q.** What about the “in vitro kinase assay” value [6] of the same substance?
**A.** peptides containing three serines, except the peptides containing S^117, were phosphorylated by IKKε in vitro
